For one experiment, the target named is T1, hDPEP3-ECD-His (human, UniProt Q9H4B8 36-463).
T1 construct: also called hDPEP3-His; monomeric hDPEP3-His antigen; not shown: histidine tag
T1 sequence: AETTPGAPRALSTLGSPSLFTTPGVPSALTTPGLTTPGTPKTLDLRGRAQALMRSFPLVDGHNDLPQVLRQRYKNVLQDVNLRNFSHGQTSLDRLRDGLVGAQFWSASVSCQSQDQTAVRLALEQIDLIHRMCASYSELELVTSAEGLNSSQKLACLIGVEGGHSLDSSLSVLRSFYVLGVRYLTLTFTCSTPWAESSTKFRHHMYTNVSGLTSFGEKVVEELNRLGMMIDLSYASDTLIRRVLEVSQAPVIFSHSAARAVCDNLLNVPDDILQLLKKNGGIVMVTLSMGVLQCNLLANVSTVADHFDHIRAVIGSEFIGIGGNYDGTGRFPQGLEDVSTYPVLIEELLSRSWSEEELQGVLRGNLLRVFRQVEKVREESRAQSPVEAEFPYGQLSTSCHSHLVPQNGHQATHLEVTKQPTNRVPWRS
Nature of the experiment: BLI ForteBio RED, 200 nM hDPEP3-His, estimated grade. As to the method: The affinity of the antibodies for hDPEP3-His was qualitatively determined from kinetics curves generated with a ForteBio RED as follows. Anti-DPEP3 antibodies were immobilized onto anti-mouse Fc capture biosensors with a contact time of 3 mins. and a flow rate of 1000 rpm. The captured antibody loading from baseline was constant at 0.3-1 units. Following antibody capture and 30 second baseline, the biosensors were dipped into a 200 nM solution of hDPEP3-His for a 4 min. association phase followed by a 3 min. dissociation phase at a shaking rate of 1000 rpm. The biosensors were regenerated by dipping into 10 mM glycine, pH 1.7 following each cycle. The data was processed by subtracting a control mouse IgG surface response from the specific antibody response and data was truncated to the association and dissociation phase. The association and dissociation curves were used to qualitatively estimate the affinities of selected antibodies. […] A designation of “ND” means that the estimated KD was not determined.

The target of experiment [1] is T2, rat DPEP3 ECD with histidine tag (rat, UniProt Q5U2X4 36-459, limits assumed).
T2 construct: also called rDPEP3-His; ratDPEP3-His; not shown: histidine tag
T2 sequence: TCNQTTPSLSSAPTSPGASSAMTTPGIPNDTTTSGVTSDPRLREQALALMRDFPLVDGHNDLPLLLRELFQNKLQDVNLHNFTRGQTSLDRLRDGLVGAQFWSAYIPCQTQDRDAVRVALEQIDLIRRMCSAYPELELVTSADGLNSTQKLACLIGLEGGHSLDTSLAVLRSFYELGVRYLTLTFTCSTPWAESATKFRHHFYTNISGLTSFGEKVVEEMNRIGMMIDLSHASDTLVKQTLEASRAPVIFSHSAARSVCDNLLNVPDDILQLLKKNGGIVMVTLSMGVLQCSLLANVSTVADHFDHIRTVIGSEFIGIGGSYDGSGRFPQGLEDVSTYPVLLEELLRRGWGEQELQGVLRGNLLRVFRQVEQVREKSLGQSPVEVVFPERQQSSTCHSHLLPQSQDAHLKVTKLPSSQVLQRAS
The experiment in a line: ELISA, coated antigen. The protocol:
(§1) The anti-DPEP3 antibodies were screened by ELISA for cross-reactivity with mouse, rat and cynomolgus DPEP3 and for cross reactivity to hDPEP2, the closest DPEP3 family member. ELISA was conducted as follows. Plates were coated with purified mouse, rat or cynomolgus DPEP3-His or hDPEP2-His at 0.3 μg/mL in 0.2 M carbonate-bicarbonate buffer, pH 9.4 overnight at 4° C. The protein solution was removed and the wells were blocked with 1% (w/v) BSA in PBS (PBSA), 100 μL/well for 1 hour at 37° C. Anti-DPEP3 antibody or a mouse isotype control antibody was then added at 1 μg/mL in 50 μL PBSA for 1 hour at room temperature. After washing with water, 50 μL/well HRP-labeled goat anti-mouse IgG antibody diluted 1:10,000 in PBSA was added for 30 min at room temperature. The plates were washed and developed by the addition of 40 μL/well of the TMB substrate solution (Thermo Scientific) at room temperature. An equal volume of 0.2 M H₂SO₄ was added to stop substrate development. The samples were then analyzed by spectrophotometer at OD 450. […] The cross reactivity results for exemplary DPEP3-specific antibodies can be seen in FIG. 4.
In general terms: In an ELISA, binding on a coated surface is turned into a signal by an enzyme label.

The next experiment has as its target T3, mDPEP3 (limits assumed).
T3 construct: also called mouse DPEP3-His; mouse DPEP3 ECD with histidine tag
T3 single chain: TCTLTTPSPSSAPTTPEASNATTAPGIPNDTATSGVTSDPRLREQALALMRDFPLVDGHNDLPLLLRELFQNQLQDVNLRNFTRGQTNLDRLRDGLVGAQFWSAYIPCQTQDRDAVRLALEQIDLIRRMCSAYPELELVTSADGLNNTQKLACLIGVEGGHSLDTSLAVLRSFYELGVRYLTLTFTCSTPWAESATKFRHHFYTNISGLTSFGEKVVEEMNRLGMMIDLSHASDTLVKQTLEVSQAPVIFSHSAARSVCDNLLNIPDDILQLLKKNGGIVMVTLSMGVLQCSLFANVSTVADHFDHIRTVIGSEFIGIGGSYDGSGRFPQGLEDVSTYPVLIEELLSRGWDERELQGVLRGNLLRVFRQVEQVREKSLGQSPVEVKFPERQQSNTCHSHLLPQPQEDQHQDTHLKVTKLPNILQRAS
The experiment in a line: ELISA, coated antigen. As to the method:
as §1

Experiment [2] addresses T4, hDPEP2 ECD with histidine tag (human, UniProt Q9H4A9 33-463).
T4 construct: also called hDPEP2-His; not shown: histidine tag
Nature of the experiment: ELISA, coated antigen. As to the method:
as §1

The target of the next experiment is T5, cDPEP3 (Macaca fascicularis, UniProt Q4R7M2).
T5 construct: extracellular domain; also called cynomolgus DPEP3-His; cynomolgus DPEP3 ECD with histidine tag
T5 sequence (single chain, looked up): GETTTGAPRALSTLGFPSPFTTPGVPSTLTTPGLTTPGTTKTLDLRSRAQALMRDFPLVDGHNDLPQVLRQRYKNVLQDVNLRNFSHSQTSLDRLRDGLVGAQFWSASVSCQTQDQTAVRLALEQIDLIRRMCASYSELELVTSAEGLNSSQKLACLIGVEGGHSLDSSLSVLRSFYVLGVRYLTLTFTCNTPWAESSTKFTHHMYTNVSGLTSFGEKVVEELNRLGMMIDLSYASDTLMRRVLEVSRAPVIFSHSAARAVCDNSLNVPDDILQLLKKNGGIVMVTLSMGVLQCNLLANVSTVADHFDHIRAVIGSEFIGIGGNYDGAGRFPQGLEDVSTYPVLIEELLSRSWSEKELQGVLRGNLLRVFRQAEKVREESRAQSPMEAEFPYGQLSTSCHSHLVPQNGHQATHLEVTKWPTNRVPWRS
Nature of the experiment: ELISA, coated antigen. As to the method:
as §1

Values joined by “and” are separate entries in the source; they are usually repeats but may differ in a detail not shown here. Equal entries are not always repeated.

T4 sequence (Q9H4A9 33-463): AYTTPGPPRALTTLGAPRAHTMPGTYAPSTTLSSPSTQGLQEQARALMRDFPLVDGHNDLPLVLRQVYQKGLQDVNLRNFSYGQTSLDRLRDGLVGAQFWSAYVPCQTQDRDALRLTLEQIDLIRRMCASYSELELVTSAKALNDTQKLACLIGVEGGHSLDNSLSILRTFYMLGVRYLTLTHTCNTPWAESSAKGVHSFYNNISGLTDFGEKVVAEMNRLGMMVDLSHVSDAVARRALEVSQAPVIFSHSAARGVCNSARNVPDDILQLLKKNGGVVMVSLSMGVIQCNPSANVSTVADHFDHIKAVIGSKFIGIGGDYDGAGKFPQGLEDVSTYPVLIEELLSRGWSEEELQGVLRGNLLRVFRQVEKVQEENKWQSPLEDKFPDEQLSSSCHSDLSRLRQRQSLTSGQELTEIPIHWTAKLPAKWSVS

B1: SC34.86 (antibody, mouse IgG1, V domains shown)
VH: QVQLQQSGAELARPGASVKLSCKASGYTFTSYTITWVKQRTGQGLEWIGEIYPGSGNTYYNEKFKGKATLTTDKSSSTAYMQLSSLTSEDSAVYFCARVHDYGSWFPYWGQGTLVTVSA
VL: DTVMSQSPSSLAVSVGEKVTLSCKSSQSLLYSRYQKNYLAWYQQKPGQSPKLLLYWASTRESGVPDRFTGSGSGTDFTLTISSVKAEDLAVYYCQQHYRYPLTFGAGTKLELK
Take B1: in the experiment with hDPEP3-ECD-His, the dissociation constant Kd – broadly, the equilibrium constant for the complex coming apart – was below 5 nM. For the same molecule, the binding result (in experiment [1]; in the experiment with mDPEP3; in experiment [2]) was “no binding (tested: 1 ug/mL)” throughout.

B2: SC34.25 (antibody, mouse IgG1, V domains shown)
VH: QVQLQQSGVELARPGASVKVSCKASGYTFTSYAISWVKQRTGQGLEWIGEIYPGSGETYYNEKFKGKATLTTDKSSSTAYMHLSSLTSEDSAVYLCGRVNDYGSWFPYWGQGTLVTVSA
VL: DIVMSQSPSSLAVSGGEKVTMSCKSSQSLLYSRYQKNYVAWYQQKPGQSPKLLIYWASTRESGVPDRFTGSGSGTDFTLTISSVKAEDLAVYYCQQYYRYPLTFGAGTKLELK
As for B2, the Kd with hDPEP3-ECD-His was below 5 nM. Further, the binding result (in experiment [1]; with mDPEP3; in experiment [2]) was “no binding (tested: 1 ug/mL)” each time.

B3: SC34.58 mouse anti-DPEP3 antibody (antibody, V domains shown)
VH: QVQLQQSGAELARPGASVKLSCKASGYTFTSYGVNWVKQRTGQGLEWIGEIYPGRGDVYYNDNFKGKATLTTDKSSSTAYMQLSSLTSEDSAVYFCARVHDYGSWFPYWGQGTLVTVSA
VL: DIVMSQSPSSLAVSVGEKVTMSCKSSQSLLYSRNQKNYLAWYQQKPGQSPKLLIYWASTRESGVPDRFTGSGSGTDFTLTISSVKAEDLAVYYCHQHYRYPLTFGAGTKLELR
notes: Mouse hybridoma antibody
In the case of B3, the dissociation constant (Kd) with hDPEP3-ECD-His was below 5 nM. The binding result (in experiment [1]; in the experiment with mDPEP3; in experiment [2]) was “no binding (tested: 1 ug/mL)” each time.

B4: SC34.16 (antibody, mouse IgG1, V domains shown)
VH: QVQLQQSGTELARPGASVKLSCKASEYTFTSYAITWVRQRTGQGLEWIGEIYPGSGNTYYNETFKGKATLTSDKSSSTASMQLSSLTSEDSAVYFCARVHDYGSWFPYWGQGTLVTVSA
VL: DIVMSQSPSSLAVSVGEKVTMSCKSSQSLLYSRYQKNYLAWYQQKPGQSPKLLIYWSSTRESGVPDRFTGSGSGTDFTLTISSVKAEDLADYYCQQYYRYPLTFGAGTKLELK
On to B4, for which the dissociation constant (Kd) in the experiment with hDPEP3-ECD-His is below 5 nM. The binding result (in experiment [1]; with mDPEP3; in experiment [2]) was “no binding (tested: 1 ug/mL)” each time.

B5: SC34.13 (antibody, mouse IgG2a, V domains shown)
VH: QVQVQQSGAELARPGASVKLSCKASGYTFTSYAISWVKQRTGQGLEWIGEIYPGSGNTYYNGKFKGKATLTTDKSSSTAYMQLSSLTSEDSAVYFCARVDDYGSWFPYWGQGTLVTVSA
VL: DIVMSQSPSSLAVSVGEKVTLSCKSSQSLLYSRYQKNYLAWYQQKPGQSPRLVIYWASTRESGVPDRFTGSGSGTDFTLTISSVKAEDLVVYYCQQYYRYPLTFGSGTKLELK
Consider B5, for which the dissociation constant (Kd) with hDPEP3-ECD-His is ≥ 5 nM and ≤ 10 nM. In addition, the binding result (in experiment [1]; with mDPEP3; in experiment [2]) was “no binding (tested: 1 ug/mL)” each time.

B6: SC34.89 (antibody, mouse IgG1, V domains shown)
VH: QVQLQQSGAELARPGASVKLSCKASGYTFTSYAISWVKQRTRQGLEWIGEIYPGSGDIHYSGKFKGKASLTTDKSSSTAYMQLSSLTSEDSAVYFCARVHDYGSWFPYWGQGTLVTVSA
VL: DIVMSQSPSSLGVSVGEKVTLSCKSSQSLFNKRDQKNYLAWYQQKPGQSPKLLIYWASTRESGVPDRFTGSGSGTDFILTIRSVKAEDLAVYYCHQSYRYPLTFGAGTKLELK
For B6, in the experiment with hDPEP3-ECD-His, the Kd was below 5 nM. The binding result (in experiment [1]; in the experiment with mDPEP3; in experiment [2]) was “no binding (tested: 1 ug/mL)” each time.

B7: SC34.19 (antibody, mouse IgG1, V domains shown)
VH: QVQLQQSGAELARPGASVKLSCKASGYTFTSYAITWVKQRTGQGLEWIGEIYPGSGNTFFNEKFKGRATLTTDKSSSTAYMQLSSLTSEDSAVYFCARVHDYGSWFPYWGQGTLVTVSA
VL: DIVMSQSPSALAVSVGEKITMSCKCSQSLLHSRDQKNYLAWYQQKPGQSPKLLIYWASTRESGVPDRFTGSGSGTDFTLTINTVKAEDLAVYYCQQHYRYPLTFGAGTKLELK
Take B7: the Kd with hDPEP3-ECD-His is ≥ 5 nM and ≤ 10 nM. Further, the binding result (in experiment [1]; with mDPEP3; in experiment [2]) was “no binding (tested: 1 ug/mL)” throughout.

B8: SC34.87 (antibody, mouse IgG2a, V domains shown)
VH: QVQLQQSGAELAKPGASVKMSCKASGYTFTSYWMLWVKQRPGQGLEWIGYIDPRNGYTEYNQKFKDKATLTADKSSSTAYMQLSSLTSEDSAVYYCTRGGNVAMDYWGQGTSVTVSS
VL: DIVMSQSPSSLAVSAGEKVTMSCKSSQSLLNSRTRKNYLAWYQQKPGQSPKLLIYWASTRESGVPGRFTGSGSGTDFTLTISSVQAEDLAVYYCKQSYNLWTFGGGTKLEIK
In the case of B8, in the experiment with hDPEP3-ECD-His, the Kd is ≥ 5 nM and ≤ 10 nM. Moreover, the binding result (with mDPEP3; with cDPEP3; in experiment [2]) was “no binding (tested: 1 ug/mL)” throughout.

These data come from patent publication US20170029530A1 (AbbVie / Abbott, published 2017).
